Test results from patent US9091695B2, “Methods and systems for quantification of peptides and other analytes” (Laboratory Corporation of America Holdings, priority 2007, dated 2015).

How the values were obtained:
[1] = Stock solution / internal standard solution storage stability; assay type: physicochemical
[2] = Autosampler stability of calibrators and quality control samples; assay type: physicochemical; settings: stored in the autosampler at 10° C.
Protocol: The autosampler stability was evaluated using calibrators and quality control samples (LLOQ, mid-range and ULOQ using both pooled plasma and blank plasma calibrators). Duplicate curves were included with the batch. The first calibration curve was injected, then after 24 hours, the remaining quality control and calibration curve samples were injected. Both calibration curves were used to ascertain accuracy of pooled patient and blank plasma controls. The acceptability criteria is defined such that the standard curve back-fit data should be 80-120% at LLOQ, 85-115% at other concentrations of expected curve values. Mean accuracy of each quality control sample should be ≦±20% at the LLOQ and ≦±15% at all other levels.

Substance | Time internal standard solution is stable ([1]; refrigerated at 4° C.) | Time stable in the autosampler [2] [h] | Time stock solution is stable ([1]; frozen at −70° C.)
[(U-23C9, 15N)-Tyr5], [(U-23C6, 15N)-Leu7], [(U-19C5, 15N)-Pro9]-Gonadorelin [GnRH internal standard] | up to 51 days | – | –
pGlu-His-Trp-Ser-Tyr-Gly-Leu-Arg-Pro-Gly-NH2 [GnRH] | – | 24 | up to 376 days
